As a reminder, the stoichiometry N is the number of molecules, sites or subunits per partner or assembly.

Series [1] has as its target piggyBac transposase (PB), full-length, Trichoplusia ni (Trichoplusia ni). Nature of the series: SEC-MALS; purified PB at 4 and 2 mg/ml, Superdex 200 Increase 10/300, 20 mM HEPES pH 7.5, 100 mM NaCl, 1 mM TCEP; no DNA. In general terms: In gel filtration, larger molecules generally elute earlier.
Series [2] addresses T1, piggyBac transposase (PB) (Trichoplusia ni, UniProt Q283G1 1-594). Nature of the series: cryo-EM; 5 mM Ca2+; Zn2+ in CRD; SNHP: 50 mM Tris-Cl pH 8.0, 100 mM NaCl, 5 mM CaCl2, 1 mM TCEP, mixed 1 h at 25 C; STC: 50 mM Tris-Cl pH 8.0, 500 mM NaCl dialyzed to 200 mM NaCl, 10 mM CaCl2. To be noted: protein: recombinant; tags: N-terminal MBP tag removed by TEV; chain copies: 2; hairpin, 35 bp stem, TTAA loop; 2 copies per PB dimer.

For series [3], the target named is T1, piggyBac transposase (PB). The series is described as follows: cryo-EM; 10 mM Ca2+; Zn2+ in CRD; SNHP: 50 mM Tris-Cl pH 8.0, 100 mM NaCl, 5 mM CaCl2, 1 mM TCEP, mixed 1 h at 25 C; STC: 50 mM Tris-Cl pH 8.0, 500 mM NaCl dialyzed to 200 mM NaCl, 10 mM CaCl2. To be noted: protein: recombinant; tags: N-terminal MBP tag removed by TEV; chain copies: 2; four annealed oligos, 2 copies of each; S4 pairs with S5+S6 (break between S5 and S6), 5' CCGG flap on S4; S7 pairs with 3' 11 nt of S6; central target TTAA unpaired in the complex.

T1 sequence (Q283G1 entry or part of it): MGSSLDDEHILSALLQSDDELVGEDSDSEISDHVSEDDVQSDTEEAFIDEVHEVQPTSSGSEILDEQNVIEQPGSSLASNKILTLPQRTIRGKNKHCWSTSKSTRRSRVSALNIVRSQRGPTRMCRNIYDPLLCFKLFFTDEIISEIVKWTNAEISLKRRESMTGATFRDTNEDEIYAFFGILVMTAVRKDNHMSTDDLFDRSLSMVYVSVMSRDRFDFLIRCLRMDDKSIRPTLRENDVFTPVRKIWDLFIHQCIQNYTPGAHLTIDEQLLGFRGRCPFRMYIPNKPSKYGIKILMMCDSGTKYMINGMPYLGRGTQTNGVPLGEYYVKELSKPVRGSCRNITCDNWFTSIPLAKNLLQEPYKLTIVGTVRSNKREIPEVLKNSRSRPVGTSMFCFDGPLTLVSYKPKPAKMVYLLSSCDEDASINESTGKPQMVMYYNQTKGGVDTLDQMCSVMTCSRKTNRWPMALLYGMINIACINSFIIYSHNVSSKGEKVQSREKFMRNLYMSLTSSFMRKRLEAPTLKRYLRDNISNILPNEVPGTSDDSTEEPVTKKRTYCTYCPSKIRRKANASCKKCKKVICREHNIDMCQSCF

As for “piggyBac transposase (PB), full-length, Trichoplusia ni (enzyme)”, in series [1], the stoichiometry N came to 2.

B1: LE35hrpn (SNHP LE hairpin DNA) (structured_DNA)
DNA: CATGCGTCAATTTTACGCAGACTATCTTTCTAGGGTTAACCCTAGAAAGATAGTCTGCGTAAAATTGACGCATG
For the molecule B1, the binding result in series [2] is “binds”.

B2: LE STC DNA (mixed)
DNA 1: CCGGCCCTAGAAAGATAGTCTGCGTAAAATTGACGCATGCA
DNA 2: TGCATGCGTCAATTTTACGC
DNA 3: AGACTATCTTTCTAGGGTTAAGACTGTGCCGC
DNA 4: GCGGCACAGTC
Regarding B2, the binding result in series [3] is “binds”.

The values above are taken from publication PMC7351741, “Structural basis of seamless excision and specific targeting by piggyBac transposase”.
